# Assay results reported in the DeepSol protein solubility set.
# Test: soluble on expression in E. coli; label from the status in PepcDB or PDB records
row,Sequence,soluble on expression in E. coli
1,MGSDKIHHHHHHMKILWITSVYPSSMKPGEGVFHETQVQELQKLGLDITVICPRPFHSAPVRMLKKTYRKKDVRPEYEIRKGIPVYRPFYRAVPGQLKWAQPHRRIASAVLKTMKQRDLYPDLIHAHFAMPSGGAAAVVSESAQIPYVLTLHGSDVNVYPHYSKGAFKAFKRAVGSASVVLAVSHKLQEEAKKLSGFDSSVLPIGIQLSRFQGNEETKEEIRKRLGLPLDQRLAVYVGRLVREKGIFELSEAIESLQDSPKAVFVGDGPAKSTLTQKGHIVTGQVPNHQVRDYLLAADLFVLPSYSEGMPTVVIEALALRVPVICTDVGGVSSLFGKHQHLLIKPKSAQALAEAITRYEHEQIWKPEVADDLYETVQAQFDAGKNAKALHHQYQTVTKTSV,not soluble
2,MGSDKIHHHHHHMKITWFGHACFALEMEGKTIVTDPFDESVGYPIPNVTADVVTESHQHFDHNAHHLVKGNFRVIDRPGAYTVNGVKIKGVETFHDPSHGRERGKNIVFVFEGEGIKVCHLGDLGHVLTPAQVEEIGEIDVLLVPVGGTYTIGPKEAKEVADLLNAKVIIPMHYKTKYLKFNLLPVDDFLKLFDSYERVGNILELFEKPKERKVVVMEVQ,soluble
3,MGSDKIHHHHHHMKIVYFVDGLNRGGVESVVCHLSSSFAKLRNKIYIICLHKDMNDLHLEIPEYISVFYLPFESNRNHHVNYIRYLPNLVDLLKKIKPDIVHAHNSSFSYFFLSIGILLSRTVPVNIRSIHFSGFFLEKRTIEDKIRFIFDWCACRLLKTIIISVGPTVSRVVKRLYTSNQHLTIVNGIDTKEKFCKRNLTKSCMGISEDKYVAVYVARICEGKNHDTLIKAWEIVTQYHPSALLLFIGDGPLKEQYQSVVHEKSLDDKITFTGSIPNIVEYLSIADVGVFPSESEGLPLVLMEMMAVELPVVASKIPSCCDLIEENVNGILYETYDYKDLANKILSVLCDNELKKKLGEQAKLLVCNHYSIENMINRHNILYQKLLLKQNFTDAYN,not soluble
4,MGSDKIHHHHHHMKKAAIITIGSELLEGLILNKNAQFLCQELKNLGYRVVKVSTVGDDLISISEEVKTLLLKVDLLILTGGLGPTQDDLTRDAVAKVLNRSLKLNEELLSKIKEKIKKYHSEIPQNIERQALVIDGAEVLDNPVGSAPGQLLTVDGKIVILLPGPPRELIPMFNALKDRLRTPDALYQVVLKYYSIPEAVLEDLLKDILYSQNIVEVATMADHVEGVRLRLTTHMKNKEYLDEMVKKILDKTGEHLYGVNDEKMEEVVVRLLKDRKKTLAVAESCTGGMLSSLVVNVPGASEVFIGGVVAYSNDLKKHILGVREDTLKKHGAVSEECVQEMTEGLKKLTGADICVSISGIAGPSGGTPEKPVGTVFIDIFEHEHITMRYNFTGDRNMIRTRSAMMALENLRKYLKGRERV,not soluble
5,MGSDKIHHHHHHMKKGFSALVEHNGYRVLVDTGTDGKILLNNMEGLGIDPNSIDALFLTHGHYDHTGGIAELLKARKDTLDVYAHPRIFEKRIALKPKRRDIGIPFSQEELESLGAIFHLNDKALEFLPGLISSGEIKRETWDRAVGYLLNNEKDPVRDDMALLIDLGDKIAVITGCGHSGILNIAKHAVEISKKPIRALIGGFHLRGASITILEDAVRGLKELNVEMLYPGHCTGIDEYAYLRMKLKAEHLNVGKEIVIK,not soluble
6,MGSDKIHHHHHHMKKHAYLIIAHDNWKILEKLLILLDDKRNDIYLHIDRKSNLINFSNNVHNANLFVFHEIDVRWGDISLIQVEFFLFKTAYCKGNYSYYHLISGSDLPLKTQDEIHAFFDAHYPTEFIGFSLEMTCDDRVNRAYIFPKYQRIKNRYGNKLLGSLRSFCAFLQKILNYNHYKLKDKLMIGPEWVSITEQSVSLILSKEKVIMKQYRFASCGDEVYKQTIIGNSFLFNYVYDKNDDYKGCMRYIDWTRGNPYIFRSADFEQLMSSDRMFARKFDEKVDFDIVERIFEVLNGQTSDSKMKYYF,not soluble
7,MGSDKIHHHHHHMKKILYLHAGAELYGADKVLLELIKGLDKNEFEAHVILPNDGVLVPALREVGAQVEVINYPILRRKYFNPKGIFDYFISYHHYSKQIAQYAIENKVDIIHNNTTAVLEGIYLKRKLKLPLLWHVHEIIVKPKFISDSINFLMGRFADKIVTVSQAVANHIKQSPHIKDDQISVIYNGVDNKVYYQSDARSVRERFDIDEEALVIGMVGRVNAWKGQGDFLEAVAPILEQNPKAIAFIAGSAFEGEEWRVVELEKKISQLKVSSQVRRIDYYANTTELYNMFDIFVLPSTNPDPLPTVVLEAMACGKPVVGYRHGGVCEMVKEGVNGFLVTPNSPLNLSKVILQLSENINLRKKIGNNSIERQKEHFSLKSYVKNFSKVYTSLKVY,not soluble
